Experimental data: publication PMC4041450

T1: GST-His-SHARP R3-4h (Homo sapiens, UniProt Q96T58 436-620)
T1 sequence: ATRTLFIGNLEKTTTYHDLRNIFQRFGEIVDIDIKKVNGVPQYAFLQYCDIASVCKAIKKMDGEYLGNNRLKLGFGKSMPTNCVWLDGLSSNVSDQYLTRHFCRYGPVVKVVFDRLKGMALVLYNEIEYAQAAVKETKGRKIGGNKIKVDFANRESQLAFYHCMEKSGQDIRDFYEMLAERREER

T2: SHARP R2-3-4h (SHARP-RRM) (Homo sapiens, UniProt Q96T58 335-620)
T2 sequence: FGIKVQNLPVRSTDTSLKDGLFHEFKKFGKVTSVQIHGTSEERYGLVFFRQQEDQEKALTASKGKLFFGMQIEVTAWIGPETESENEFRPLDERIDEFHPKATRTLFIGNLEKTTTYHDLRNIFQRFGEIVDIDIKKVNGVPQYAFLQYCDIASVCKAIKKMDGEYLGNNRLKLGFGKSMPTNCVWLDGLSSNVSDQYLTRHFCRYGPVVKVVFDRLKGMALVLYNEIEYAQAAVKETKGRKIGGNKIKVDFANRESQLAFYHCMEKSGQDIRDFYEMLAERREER


Legend:
GST-His-SHARP R3-4h = target: T1, GST-His-SHARP R3-4h; test: UV crosslinking
[1] = target: T2, SHARP R2-3-4h (SHARP-RRM); test: competition

Binder	binding result (GST-His-SHARP R3-4h)	binding result [1]
SRA RNA H12-H13 extended (structured_RNA) RNA: GGGAGCAGGUAUGUGAUGACAUCAGCCGACGCCUGGCACUGCUGCAGGAACAGUGGGCUGGAGGAAAGUUGUCAAUACCUGUAAGAGACCGAAUUCACUGGCCGUCGUUUUACAACGUCGUGACUGGGAAAAC	binds	–
AAAAAAAAAAAAAAA (ssRNA) [A15]	–	no binding
